In paper PMC7369618 one finds stoichiometry N data, which are given here for 1 substance.

The assay addresses pyruvate kinase M2 (PKM2), endogenous in mouse macrophages (mouse (endogenous in BMDMs or Raw 264.7)) (UniProt P52480). In words: cross-linking.

Chain of pyruvate kinase M2 (PKM2), endogenous in mouse macrophages, P52480 1-531 (enzyme; other documents disagree on this pair) (P52480 whole entry): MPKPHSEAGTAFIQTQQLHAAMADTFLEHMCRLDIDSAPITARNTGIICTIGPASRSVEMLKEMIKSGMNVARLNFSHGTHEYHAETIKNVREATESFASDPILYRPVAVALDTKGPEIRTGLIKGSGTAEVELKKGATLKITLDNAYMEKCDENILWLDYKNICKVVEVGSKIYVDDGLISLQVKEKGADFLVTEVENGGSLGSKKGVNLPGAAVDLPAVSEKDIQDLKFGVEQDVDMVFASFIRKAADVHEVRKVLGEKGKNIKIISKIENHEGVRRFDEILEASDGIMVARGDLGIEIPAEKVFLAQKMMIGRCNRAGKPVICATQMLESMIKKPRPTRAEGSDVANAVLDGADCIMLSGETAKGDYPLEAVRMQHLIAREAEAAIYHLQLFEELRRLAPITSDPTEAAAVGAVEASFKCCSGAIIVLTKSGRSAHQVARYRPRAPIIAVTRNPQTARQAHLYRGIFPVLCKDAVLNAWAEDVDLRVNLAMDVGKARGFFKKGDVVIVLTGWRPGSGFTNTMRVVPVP

What is called stoichiometry N is the number of molecules, sites or subunits per partner or assembly. The substance “pyruvate kinase M2 (PKM2), endogenous in mouse macrophages, P52480 1-531 (enzyme; other documents disagree on this pair)” had a stoichiometry N of 4.
